Results from PMC9371921, “Strand annealing and motor driven activities of SMARCAL1 and ZRANB3 are stimulated by RAD51 and the paralog complex” (Nucleic Acids Research, 2022).

Target: the molecule itself
Experiment: mass photometry; 2 μl (50 nM) protein solution added into 18 μl protein elution buffer; movie recorded for 1 min; Refeyn 2MP mass photometer, NativeMark size marker

B1: RAD51 paralog complex RAD51B-RAD51C-RAD51D-XRCC2 (BCDX2) (complex, human)
chain 1: MGSKKLKRVGLSQELCDRLSRHQILTCQDFLCLSPLELMKVTGLSYRGVHELLCMVSRACAPKMQTAYGIKAQRSADFSPAFLSTTLSALDEALHGGVACGSLTEITGPPGCGKTQFCIMMSILATLPTNMGGLEGAVVYIDTESAFSAERLVEIAESRFPRYFNTEEKLLLTSSKVHLYRELTCDEVLQRIESLEEEIISKGIKLVILDSVASVVRKEFDAQLQGNLKERNKFLAREASSLKYLAEEFSIPVILTNQITTHLSGALASQADLVSPADDLSLSEGTSGSSCVIAALGNTWSHSVNTRLILQYLDSERRQILIAKSPLAPFTSFVYTIKEEGLVLQETTFCSVTQAELNWAPEILPPQPPEQLGLQMCHHTQLIF
chain 2: MRGKTFRFEMQRDLVSFPLSPAVRVKLVSAGFQTAEELLEVKPSELSKEVGISKAEALETLQIIRRECLTNKPRYAGTSESHKKCTALELLEQEHTQGFIITFCSALDDILGGGVPLMKTTEICGAPGVGKTQLCMQLAVDVQIPECFGGVAGEAVFIDTEGSFMVDRVVDLATACIQHLQLIAEKHKGEEHRKALEDFTLDNILSHIYYFRCRDYTELLAQVYLLPDFLSEHSKVRLVIVDGIAFPFRHDLDDLSLRTRLLNGLAQQMISLANNHRLAVILTNQMTTKIDRNQALLVPALGESWGHAATIRLIFHWDRKQRLATLYKSPSQKECTVLFQIKPQGFRDTVVTSACSLQTEGSLSTRKRSRDPEEEL
chain 3: MGVLRVGLCPGLTEEMIQLLRSHRIKTVVDLVSADLEEVAQKCGLSYKALVALRRVLLAQFSAFPVNGADLYEELKTSTAILSTGIGSLDKLLDAGLYTGEVTEIVGGPGSGKTQVCLCMAANVAHGLQQNVLYVDSNGGLTASRLLQLLQAKTQDEEEQAEALRRIQVVHAFDIFQMLDVLQELRGTVAQQVTGSSGTVKVVVVDSVTAVVSPLLGGQQREGLALMMQLARELKTLARDLGMAVVVTNHITRDRDSGRLKPALGRSWSFVPSTRILLDTIEGAGASGGRRMACLAKSSRQPTGFQEMVDIGTWGTSEQSATLQGDQT
chain 4: MCSAFHRAESGTELLARLEGRSSLKEIEPNLFADEDSPVHGDILEFHGPEGTGKTEMLYHLTARCILPKSEGGLEVEVLFIDTDYHFDMLRLVTILEHRLSQSSEEIIKYCLGRFFLVYCSSSTHLLLTLYSLESMFCSHPSLCLLILDSLSAFYWIDRVNGGESVNLQESTLRKCSQCLEKLVNDYRLVLFATTQTIMQKASSSSEEPSHASRRLCDVDIDYRPYLCKAWQQLVKHRMFFSKQDDSQSSNQFSLVSRCLKSNSLKKHFFIIGESGVEFC
notes: human RAD51B, codon-optimized for Sf9, from pFB-FLAG-RAD51Bco-10xHis-RAD51Cco; human RAD51C, codon-optimized for Sf9, from pFB-FLAG-RAD51Bco-10xHis-RAD51Cco; Expressed as a heterotetramer; by mass photometry the preparation was consistent with a dimer of the heterotetramer; also called BCDX2 complex; FLAG-BCDX2 complex; source: Sf9, co-infected with two baculoviruses, purified (Ni-NTA, then …)
  stoichiometry N: 2
